{"source": "patent US20140323404A1", "about": "(GUANGDONG MEDICAL COLLEGE, published 2014)", "binders": {"B1": {"name": "NAPTin-2 (peptide)", "chain": "NPSCGENERHDECSRKECDPKCKYDGTEEKDDEKPVVCLTRVCYGDCICRDGFLRNKNGACVKAEDCELDN"}, "B2": {"name": "NAPTin-5 (peptide)", "chain": "NPSCGENERHDECSRKECDPKCKYDGTEEKDDEKPVVCLTRVCYGDCICRDGFLRNKNGACVKAEDCEL"}, "B3": {"name": "NAPTin-6 (peptide)", "chain": "NPSCGENERHDECSRKECDPKCKYDGTEEKDDEKPVVCLTRVCYGDCICRDGFLRNKNGACVKAEDCE"}, "B4": {"name": "NAPTin-7 (peptide)", "chain": "NPSCGENERHDECSRKECDPKCKYDGTEEKDDEKPVVCLTRVCYGDCICRDGFLRNKNGACVKAEDC"}, "B5": {"name": "NAPTin-8 (peptide)", "chain": "NPSCGENERHDECSRKECDPKCKYDGTEEKDDEKPVVCLTRVCYGDCICRDGFLRNKNGACVKAEDCELDNMEF"}, "B6": {"name": "NAPTin-3 (peptide)", "chain": "NPSCGENERHDECSRKECDPKCKYDGTEEKDDEKPVVCLTRVCYGDCICRDGFLRNKNGACVKAEDCELDNM"}, "B7": {"name": "NAPTin-9 (peptide)", "chain": "NPSCGENERHDECSRKECDPKCKYDGTEEKDDEKPVVCLTRVCYGDCICRDGFLRNKNGACVKAEDCELDNMEFI"}, "B8": {"name": "NAPTin-4 (peptide)", "chain": "NPSCGENERHDECSRKECDPKCKYDGTEEKDDEKPVVCLTRVCYGDCICRDGFLRNKNGACVKAEDCELDNME"}}}
{"molecular_target": "Human coagulation factor XIa (human, UniProt P03951 19-625)", "assay": "cell-based or functional assay", "units": {"inhibition of fXIa activity, chromogenic assay, polypeptide at 100 nM": "%"}}
{"binder": "B1", "inhibition of fXIa activity, chromogenic assay, polypeptide at 100 nM": "> 90"}
{"binder": "B2", "inhibition of fXIa activity, chromogenic assay, polypeptide at 100 nM": "> 90"}
{"binder": "B3", "inhibition of fXIa activity, chromogenic assay, polypeptide at 100 nM": "> 90"}
{"binder": "B4", "inhibition of fXIa activity, chromogenic assay, polypeptide at 100 nM": "> 90"}
{"binder": "B5", "inhibition of fXIa activity, chromogenic assay, polypeptide at 100 nM": "> 90"}
{"binder": "B6", "inhibition of fXIa activity, chromogenic assay, polypeptide at 100 nM": "> 90"}
{"binder": "B7", "inhibition of fXIa activity, chromogenic assay, polypeptide at 100 nM": "> 90"}
{"binder": "B8", "inhibition of fXIa activity, chromogenic assay, polypeptide at 100 nM": "> 90"}
